Data on 125 sequences can be found in the supplement of paper PMC9112550, “Optimization of the antimicrobial peptide Bac7 by deep mutational scanning” (BMC Biology, 2022).

The data set has as its system Escherichia coli TOP10. Nature of the data set: shrunken log2 fold change of peptide-encoding DNA abundance (4.5 h post-induction vs induction); higher = less antimicrobial activity (less host growth inhibition). As to conditions: time post-induction: 4.5 h; library: site-saturation at positions 5, 18, 19, 20.
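Further: peptides expressed intracellularly from a pBAD plasmid library in pooled LB shake-flask culture, induced with 0.3% L-arabinose, DNA abundance read by NGS, three biological replicates, DESeq2 with apeglm shrinkage.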

Regarding RRIRRRPPRLPRPRPRPGGLPRP, the “shrunken log2 fold change” value is 0.289.

With RRIRKRPPRLPRPRPRPILLPRP, the “shrunken log2 fold change” value was -0.313.

As for RRIRNRPPRLPRPRPRPGWFPRP, the “shrunken log2 fold change” value is -0.00934.

Consider RRIRCRPPRLPRPRPRPMICPRP, for which the “shrunken log2 fold change” value is -0.0738.

Regarding RRIRTRPPRLPRPRPRPWTAPRP, the “shrunken log2 fold change” value is -0.124.

As to RRIRERPPRLPRPRPRPDHNPRP, the “shrunken log2 fold change” value was -0.897.

On to RRIRLRPPRLPRPRPRPNQHPRP, for which the “shrunken log2 fold change” value is -0.222.

For the sequence RRIRMRPPRLPRPRPRPANPPRP, the “shrunken log2 fold change” value is 0.267.

For RRIRERPPRLPRPRPRPDQEPRP, the “shrunken log2 fold change” value is -0.0156.

On to RRIRQRPPRLPRPRPRPPRSPRP, for which the “shrunken log2 fold change” value was 0.601.

Turning to RRIRKRPPRLPRPRPRPNIVPRP, the “shrunken log2 fold change” value was found to be 0.135.

Take RRIRKRPPRLPRPRPRPVSDPRP: the “shrunken log2 fold change” value worked out at 0.156.

As to RRIRSRPPRLPRPRPRPHYDPRP, the “shrunken log2 fold change” value is -0.735.

With RRIRARPPRLPRPRPRPKEAPRP, the “shrunken log2 fold change” value is 0.516.

On to RRIRSRPPRLPRPRPRPIGNPRP, for which the “shrunken log2 fold change” value is -0.234.

Turning to RRIRNRPPRLPRPRPRPVIHPRP, the “shrunken log2 fold change” value is -0.0797.

Regarding RRIRHRPPRLPRPRPRPCFMPRP, the “shrunken log2 fold change” value is -0.404.

Consider RRIRQRPPRLPRPRPRPWCHPRP, for which the “shrunken log2 fold change” value is -0.169.

As for RRIRCRPPRLPRPRPRPCRSPRP, the “shrunken log2 fold change” value stood at 0.118.

In the case of RRIRQRPPRLPRPRPRPNHLPRP, the “shrunken log2 fold change” value was -1.03.

Consider RRIRNRPPRLPRPRPRPKHNPRP, for which the “shrunken log2 fold change” value is -0.434.

For the sequence RRIRNRPPRLPRPRPRPLPWPRP, the “shrunken log2 fold change” value was determined as 0.00924.

Regarding RRIRCRPPRLPRPRPRPQCQPRP, the “shrunken log2 fold change” value turned out to be 0.0557.

RRIRLRPPRLPRPRPRPESFPRP: the “shrunken log2 fold change” value was 0.0256.

Regarding RRIRNRPPRLPRPRPRPELLPRP, the “shrunken log2 fold change” value turned out to be 0.0274.

On to RRIRHRPPRLPRPRPRPEYAPRP, for which the “shrunken log2 fold change” value is 0.0953.

For RRIRRRPPRLPRPRPRPPRVPRP, the “shrunken log2 fold change” value is 1.18.

Take RRIRQRPPRLPRPRPRPPFAPRP: the “shrunken log2 fold change” value was 0.742.

Consider RRIRCRPPRLPRPRPRPPITPRP, for which the “shrunken log2 fold change” value is -0.286.

Take RRIRTRPPRLPRPRPRPMKMPRP: the “shrunken log2 fold change” value was found to be 0.0821.

Consider RRIRLRPPRLPRPRPRPPSHPRP, for which the “shrunken log2 fold change” value came out at 0.0809.

Take RRIRRRPPRLPRPRPRPWVYPRP: the “shrunken log2 fold change” value stood at 0.0234.

As to RRIRERPPRLPRPRPRPKAGPRP, the “shrunken log2 fold change” value came to 0.174.

With RRIRFRPPRLPRPRPRPIPHPRP, the “shrunken log2 fold change” value is -0.31.

With RRIRCRPPRLPRPRPRPWMAPRP, the “shrunken log2 fold change” value was -0.333.

As to RRIRGRPPRLPRPRPRPYGCPRP, the “shrunken log2 fold change” value was -0.091.

As to RRIRSRPPRLPRPRPRPWEMPRP, the “shrunken log2 fold change” value was -0.00146.

Regarding RRIRSRPPRLPRPRPRPVVKPRP, the “shrunken log2 fold change” value was -0.14.

Consider RRIRTRPPRLPRPRPRPYYNPRP, for which the “shrunken log2 fold change” value was -0.719.

Regarding RRIRQRPPRLPRPRPRPNDLPRP, the “shrunken log2 fold change” value is -0.0128.

Consider RRIRTRPPRLPRPRPRPRDIPRP, for which the “shrunken log2 fold change” value was -0.0222.

Turning to RRIRYRPPRLPRPRPRPPCMPRP, the “shrunken log2 fold change” value was -0.315.

RRIRDRPPRLPRPRPRPCMWPRP: the “shrunken log2 fold change” value stood at 0.569.

Regarding RRIRLRPPRLPRPRPRPVHAPRP, the “shrunken log2 fold change” value is 0.178.

Consider RRIRNRPPRLPRPRPRPFRNPRP, for which the “shrunken log2 fold change” value was -0.515.

For RRIRFRPPRLPRPRPRPMSEPRP, the “shrunken log2 fold change” value was -0.381.

Take RRIRCRPPRLPRPRPRPYVGPRP: the “shrunken log2 fold change” value was -0.163.

Take RRIRTRPPRLPRPRPRPYKSPRP: the “shrunken log2 fold change” value is -0.118.

Regarding RRIRFRPPRLPRPRPRPRRIPRP, the “shrunken log2 fold change” value was -0.116.

With RRIRVRPPRLPRPRPRPQKVPRP, the “shrunken log2 fold change” value is -0.355.

Turning to RRIRERPPRLPRPRPRPTHPPRP, the “shrunken log2 fold change” value turned out to be 0.447.

Consider RRIRHRPPRLPRPRPRPNDKPRP, for which the “shrunken log2 fold change” value was -0.526.

On to RRIRNRPPRLPRPRPRPKGLPRP, for which the “shrunken log2 fold change” value was -0.00227.

On to RRIRDRPPRLPRPRPRPRSQPRP, for which the “shrunken log2 fold change” value is 0.137.

Consider RRIRPRPPRLPRPRPRPPYPPRP, for which the “shrunken log2 fold change” value was -0.0364.

Regarding RRIRWRPPRLPRPRPRPQARPRP, the “shrunken log2 fold change” value was 0.19.

RRIRNRPPRLPRPRPRPYDNPRP: the “shrunken log2 fold change” value is -0.897.

As to RRIRCRPPRLPRPRPRPTFFPRP, the “shrunken log2 fold change” value is 0.114.

Consider RRIRCRPPRLPRPRPRPRDQPRP, for which the “shrunken log2 fold change” value is 0.278.

As to RRIRCRPPRLPRPRPRPYKMPRP, the “shrunken log2 fold change” value was -1.66.

Consider RRIRKRPPRLPRPRPRPSYMPRP, for which the “shrunken log2 fold change” value is -0.0995.

As to RRIRNRPPRLPRPRPRPAVTPRP, the “shrunken log2 fold change” value was 0.0989.

Take RRIRWRPPRLPRPRPRPMNGPRP: the “shrunken log2 fold change” value was -0.131.

On to RRIRCRPPRLPRPRPRPPFLPRP, for which the “shrunken log2 fold change” value is -0.0759.

Regarding RRIRARPPRLPRPRPRPTQFPRP, the “shrunken log2 fold change” value was 0.071.

Take RRIRMRPPRLPRPRPRPRVEPRP: the “shrunken log2 fold change” value stood at 0.379.

RRIRYRPPRLPRPRPRPMLIPRP: the “shrunken log2 fold change” value is -0.767.

In the case of RRIRYRPPRLPRPRPRPHDSPRP, the “shrunken log2 fold change” value was -0.08.

Turning to RRIRMRPPRLPRPRPRPHCGPRP, the “shrunken log2 fold change” value is -0.033.

Consider RRIRKRPPRLPRPRPRPTWTPRP, for which the “shrunken log2 fold change” value amounted to 0.0915.

For the sequence RRIRTRPPRLPRPRPRPQVWPRP, the “shrunken log2 fold change” value was 0.112.

For the sequence RRIRYRPPRLPRPRPRPPCQPRP, the “shrunken log2 fold change” value was -0.212.

On to RRIRTRPPRLPRPRPRPMVIPRP, for which the “shrunken log2 fold change” value was -0.0894.

For RRIRMRPPRLPRPRPRPEQRPRP, the “shrunken log2 fold change” value worked out at 2.55.

Turning to RRIRARPPRLPRPRPRPTITPRP, the “shrunken log2 fold change” value worked out at 0.187.

Regarding RRIRIRPPRLPRPRPRPTYCPRP, the “shrunken log2 fold change” value is -0.214.

RRIRSRPPRLPRPRPRPYLDPRP: the “shrunken log2 fold change” value is -0.175.

On to RRIRNRPPRLPRPRPRPRQTPRP, for which the “shrunken log2 fold change” value was 0.112.

With RRIRMRPPRLPRPRPRPSWYPRP, the “shrunken log2 fold change” value is -0.506.

For RRIRWRPPRLPRPRPRPMQAPRP, the “shrunken log2 fold change” value was determined as 1.83.

Regarding RRIRYRPPRLPRPRPRPYKGPRP, the “shrunken log2 fold change” value is -0.721.

As to RRIRNRPPRLPRPRPRPWHHPRP, the “shrunken log2 fold change” value is -0.209.

For the sequence RRIRTRPPRLPRPRPRPFFAPRP, the “shrunken log2 fold change” value turned out to be 0.223.

Take RRIRPRPPRLPRPRPRPYRDPRP: the “shrunken log2 fold change” value worked out at 0.0239.

As to RRIRPRPPRLPRPRPRPWYLPRP, the “shrunken log2 fold change” value was -0.591.

With RRIRIRPPRLPRPRPRPIMNPRP, the “shrunken log2 fold change” value was -1.27.

In the case of RRIRFRPPRLPRPRPRPQISPRP, the “shrunken log2 fold change” value was -0.217.

As to RRIRTRPPRLPRPRPRPKEDPRP, the “shrunken log2 fold change” value was determined as 0.262.

On to RRIRYRPPRLPRPRPRPSRCPRP, for which the “shrunken log2 fold change” value is -0.154.

In the case of RRIRPRPPRLPRPRPRPCSSPRP, the “shrunken log2 fold change” value is -0.467.

Consider RRIRHRPPRLPRPRPRPYDSPRP, for which the “shrunken log2 fold change” value is -0.0275.

RRIRIRPPRLPRPRPRPAAHPRP: the “shrunken log2 fold change” value is -0.0526.

For RRIRKRPPRLPRPRPRPYCWPRP, the “shrunken log2 fold change” value was -0.315.

RRIRIRPPRLPRPRPRPIIQPRP: the “shrunken log2 fold change” value was -0.455.

For the sequence RRIRYRPPRLPRPRPRPTQVPRP, the “shrunken log2 fold change” value was determined as 0.188.

For RRIRLRPPRLPRPRPRPPQDPRP, the “shrunken log2 fold change” value was 0.348.

Turning to RRIRMRPPRLPRPRPRPYFTPRP, the “shrunken log2 fold change” value is -0.362.

On to RRIRERPPRLPRPRPRPMKRPRP, for which the “shrunken log2 fold change” value is -0.312.

RRIRPRPPRLPRPRPRPGSTPRP: the “shrunken log2 fold change” value was 0.123.

Take RRIRFRPPRLPRPRPRPVPGPRP: the “shrunken log2 fold change” value is 0.1.

Turning to RRIRYRPPRLPRPRPRPQIYPRP, the “shrunken log2 fold change” value was -0.132.

In the case of RRIRSRPPRLPRPRPRPIDAPRP, the “shrunken log2 fold change” value is -0.101.

On to RRIRNRPPRLPRPRPRPEDVPRP, for which the “shrunken log2 fold change” value was -0.0153.

For the sequence RRIRIRPPRLPRPRPRPYWQPRP, the “shrunken log2 fold change” value is -0.774.

With RRIRGRPPRLPRPRPRPMLMPRP, the “shrunken log2 fold change” value is 1.09.

On to RRIRWRPPRLPRPRPRPASVPRP, for which the “shrunken log2 fold change” value worked out at 0.00924.

As for RRIRARPPRLPRPRPRPEVKPRP, the “shrunken log2 fold change” value was 0.123.

For RRIRERPPRLPRPRPRPPNPPRP, the “shrunken log2 fold change” value was 0.216.

Turning to RRIRPRPPRLPRPRPRPERDPRP, the “shrunken log2 fold change” value came out at 0.195.

As for RRIRTRPPRLPRPRPRPTRAPRP, the “shrunken log2 fold change” value came to 0.687.

Consider RRIRRRPPRLPRPRPRPTWDPRP, for which the “shrunken log2 fold change” value came out at 0.19.

Consider RRIRWRPPRLPRPRPRPAYSPRP, for which the “shrunken log2 fold change” value is -0.153.

As for RRIRYRPPRLPRPRPRPQDFPRP, the “shrunken log2 fold change” value is -0.481.

With RRIRRRPPRLPRPRPRPHHHPRP, the “shrunken log2 fold change” value was -0.161.

RRIRRRPPRLPRPRPRPCELPRP: the “shrunken log2 fold change” value is -0.0595.

With RRIRERPPRLPRPRPRPDIRPRP, the “shrunken log2 fold change” value is -0.0427.

For RRIRARPPRLPRPRPRPTKLPRP, the “shrunken log2 fold change” value is -0.00644.

RRIRMRPPRLPRPRPRPGDTPRP: the “shrunken log2 fold change” value worked out at 0.064.

With RRIRRRPPRLPRPRPRPWAQPRP, the “shrunken log2 fold change” value was 0.882.

Turning to RRIRHRPPRLPRPRPRPLGYPRP, the “shrunken log2 fold change” value is -0.0228.

In the case of RRIRQRPPRLPRPRPRPGMSPRP, the “shrunken log2 fold change” value is 0.285.

In the case of RRIRSRPPRLPRPRPRPEPWPRP, the “shrunken log2 fold change” value turned out to be 0.548.

As to RRIRLRPPRLPRPRPRPHKIPRP, the “shrunken log2 fold change” value was -0.0592.

As to RRIRMRPPRLPRPRPRPNNSPRP, the “shrunken log2 fold change” value was -0.327.

With RRIRKRPPRLPRPRPRPRAVPRP, the “shrunken log2 fold change” value amounted to 0.849.
